Results reported in patent publication US11040083B2, “Polypeptides comprising vinculin binding sites for the treatment of proliferation and/or adhesion related diseases” (PARIS SCIENCES ET LETTRES—QUARTIER LATIN, priority 2015, dated 2021).

How the values were obtained:
cell = details: upon cell transfection; cited from earlier work
HeLa cells = test: Talin coat structures at Shigella entry foci; format: cell-based; details: talin-GFP transfected cells, ipaA mutant strain complemented with the derivative, 30 minutes at 37° C.
Protocol: FIG. 18 is a graph showing the role of IpaA VBSs in talin and vinculin recruitment during Shigella invasion. HeLa cells were transfected with talin-GFP and challenged with Shigella strains for 30 minutes at 37° C. Cells challenged with the IpaA mutant strain complemented with full length IpaA (FL), vector alone (2.1), IpaAΔVBS3 and IpaAΔVBS1-2. The arrows point at talin coat structures surrounding invading bacteria. Scale bar=5 μm. Average percentage of actin foci forming talin-coat structures induced by the indicated bacterial strain±SD (Exp. Procedures). For each samples, n>35 foci in at least three independent experiments. Chi-squared test with post-hoc comparison (FDR correction for p-value).
HeLa cells were seeded at 1×10^5 cells in 33 mm-diameter wells in diameter containing a sterile coverslip. One day after and immediately before infection, cells were washed three times with EM medium at 22° C. Different Shigella bacterial strains were grown in TCS medium to exponential phase, washed in EM medium and diluted to OD600 nm=0.1. The IpaA Shigella strains were incubated for 10 minutes in the presence of 10 μg/mL polylysine, washed and used to infect HeLa cell line prepared as described before. Infected cell cultures were incubated for 15 minutes at 22° C. to allow adhesion of the bacteria, and then transferred at 37° C. for 5, 10, 12, 15 and 30 minutes. […]

B1: full length IpaA: Shigella type III effector IpaA, full length (protein, listed as Shigella flexneri)
chain: MHNVNNTQAPTFLYKATSPSSTEYSELKSKISDIHSSQTSLKTPASVSEKENFATSFNQKCLDFLFSSSGKEDVLRSIYSNSMNAYAKSEILEFSNVLYSLVHQNGLNFENEKGLQKIVAQYSELIIKDKLSQDSAFGPWSAKNKKLHQLRQNIEHRLALLAQQHTSGEALSLGQKLLNTEVSSFIKNNILAELKLSNETVSSLKLDDLVDAQAKLAFDSLRNQRKNTIDSKGFGIGKLSRDLNTVAVFPELLRKVLNDILEDIKDSHPIQDGLPTPPEDMPDGGPTPGANEKTSQPVIHYHINNDNRTYDNRVFDNRVYDNSYHENPENDAQSPTSQTNDLLSRNGNSLLNPQRALVQKVTSVLPHSISDTVQTFANNSALEKVFNHTPDNSDGIGSDLLTTSSQERSANNSLSRGHRPLNIQNSSTTPPLHPEGVTSSNDNSSDTTKSSASLSHRVASQINKFNSNTDSKVLQTDFLSRNGDTYLTRETIFEASKKVTNSLSNLISLIGTKSGTQERELQEKSKDITKSTTEHRINNKLKVTDANIRNYVTETNADTIDKNHAIYEKAKEVSSALSKVLSKIDDTSAELLTDDISDLKNNNDITAENNNIYKAAKDVTTSLSKVLKNINKD
modifications: IpaA (1-633)
cell
  cytotoxicity: cytotoxic
HeLa cells
  percentage of foci forming talin coat structures: 52±6.7%
